T1: human CDH6 with EC1 removed, on HEK293T cells (HEK293T-hCDH6-EC1 deletion) (human, UniProt P55285 160-790)
T1 construct: Signal peptide not removed here
T1 sequence: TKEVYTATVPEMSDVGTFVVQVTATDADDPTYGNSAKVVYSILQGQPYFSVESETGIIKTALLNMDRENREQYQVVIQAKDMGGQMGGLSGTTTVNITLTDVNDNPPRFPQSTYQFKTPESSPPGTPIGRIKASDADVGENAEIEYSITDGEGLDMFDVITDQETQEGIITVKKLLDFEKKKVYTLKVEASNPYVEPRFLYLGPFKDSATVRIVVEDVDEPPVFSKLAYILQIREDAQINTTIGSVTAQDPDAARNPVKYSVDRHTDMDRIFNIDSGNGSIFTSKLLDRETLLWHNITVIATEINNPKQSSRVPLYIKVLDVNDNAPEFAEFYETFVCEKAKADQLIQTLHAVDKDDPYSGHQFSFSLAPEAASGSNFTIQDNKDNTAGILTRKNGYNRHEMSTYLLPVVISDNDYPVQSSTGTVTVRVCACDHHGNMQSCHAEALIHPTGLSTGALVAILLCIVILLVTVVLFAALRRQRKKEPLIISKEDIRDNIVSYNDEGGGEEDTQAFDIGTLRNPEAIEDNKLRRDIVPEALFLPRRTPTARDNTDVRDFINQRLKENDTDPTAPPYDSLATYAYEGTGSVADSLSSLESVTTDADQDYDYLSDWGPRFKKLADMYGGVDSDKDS

T2: human CDH6 with EC2 removed, on HEK293T cells (HEK293T-hCDH6-EC2 deletion) (human, UniProt P55285 54-790)
T2 construct: Signal peptide not removed here
T2 sequence: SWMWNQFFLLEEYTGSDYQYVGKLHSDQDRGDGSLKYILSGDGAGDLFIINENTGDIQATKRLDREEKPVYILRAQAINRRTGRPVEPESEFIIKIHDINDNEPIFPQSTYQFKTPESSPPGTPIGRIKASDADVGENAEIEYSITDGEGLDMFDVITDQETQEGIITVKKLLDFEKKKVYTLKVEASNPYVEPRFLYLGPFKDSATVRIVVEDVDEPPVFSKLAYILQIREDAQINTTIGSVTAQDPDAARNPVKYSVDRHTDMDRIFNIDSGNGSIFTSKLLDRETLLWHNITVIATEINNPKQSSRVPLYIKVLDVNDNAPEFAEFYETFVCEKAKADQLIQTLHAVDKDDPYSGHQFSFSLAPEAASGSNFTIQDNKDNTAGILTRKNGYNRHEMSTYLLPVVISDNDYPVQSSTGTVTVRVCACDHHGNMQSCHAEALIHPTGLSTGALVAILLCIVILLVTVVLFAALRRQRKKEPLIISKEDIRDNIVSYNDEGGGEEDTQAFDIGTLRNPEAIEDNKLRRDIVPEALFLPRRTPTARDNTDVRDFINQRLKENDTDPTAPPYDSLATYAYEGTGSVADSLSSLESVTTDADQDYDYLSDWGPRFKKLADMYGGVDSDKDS

T3: human CDH6 on tumor cells (OVCAR3 cells, PA-1 cells) (human, UniProt P55285 54-790)
T3 sequence: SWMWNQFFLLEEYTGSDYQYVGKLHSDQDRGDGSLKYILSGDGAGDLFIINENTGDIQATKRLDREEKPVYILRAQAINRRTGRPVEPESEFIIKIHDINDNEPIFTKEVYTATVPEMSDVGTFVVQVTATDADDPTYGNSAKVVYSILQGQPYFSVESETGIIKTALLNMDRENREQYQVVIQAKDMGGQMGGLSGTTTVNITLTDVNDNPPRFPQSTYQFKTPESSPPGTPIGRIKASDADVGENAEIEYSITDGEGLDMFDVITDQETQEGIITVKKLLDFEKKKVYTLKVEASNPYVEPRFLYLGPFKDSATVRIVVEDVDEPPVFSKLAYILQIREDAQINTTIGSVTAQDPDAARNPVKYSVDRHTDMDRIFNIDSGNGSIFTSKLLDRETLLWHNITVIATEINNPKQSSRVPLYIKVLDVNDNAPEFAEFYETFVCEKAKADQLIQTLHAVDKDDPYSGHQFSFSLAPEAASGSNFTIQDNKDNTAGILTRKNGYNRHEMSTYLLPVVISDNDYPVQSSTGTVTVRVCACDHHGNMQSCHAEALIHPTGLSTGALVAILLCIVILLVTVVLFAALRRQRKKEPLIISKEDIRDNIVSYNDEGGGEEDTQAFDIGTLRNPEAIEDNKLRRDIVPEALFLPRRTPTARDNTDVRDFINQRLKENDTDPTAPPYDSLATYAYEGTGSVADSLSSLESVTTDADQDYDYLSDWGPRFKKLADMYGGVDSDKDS


Assays:
[1] = biological target: T1, human CDH6 with EC1 removed, on HEK293T …; assay: FACS, HEK293T-hCDH6-EC1 deletion cells
[2] = biological target: T2, human CDH6 with EC2 removed, on HEK293T …; assay: FACS, HEK293T-hCDH6-EC2 deletion cells
[3] = biological target: T3, human CDH6 on tumor cells (OVCAR3 …); assay: FACS, OVCAR3 cells, 4° C. arm of endocytosis assay, antibody diluted to 10 µg/mL
Procedure: OVCAR3 cells were cultured until a confluence of 90% was reached, the medium was removed by pipetting, the cells were washed once with PBS, and then treated with an enzyme-free cell dissociation solution (Versene, purchased from Gibco, Cat. No. 15040-066) and the cells were collected. The cells were washed once with PBS, counted, resuspended to 2×10⁶ cells/mL in an FACS buffer (PBS+2% FBS), and then added to two 96-well plates at 50 μL/well. The chimeric antibodies were diluted with FACS buffer (PBS+2% FBS) to 10 μg/mL and separately added to the two 96-well plates at 50 μL/well, and the plates were incubated at 4° C. for 1 h. After the cells were washed 3 times with PBS, the cells were resuspended in an FACS buffer. One 96-well plate was incubated at 4° C. for 1 h, and the other 96-well plate was incubated at 37° C. for 1 h. […] After the plates were centrifuged and washed 2 times with PBS, the cells were resuspended in an FACS buffer. The mean fluorescence intensity (MFI) was measured using FACS Canton II (BD). The chimeric antibodies tested all had good endocytic activity.

Max MFI [1] [MFI]	Max MFI [2] [MFI]	MFI_4° C. [3] [MFI]	Binder
23600	39100	6520	NOV0712 (antibody, human IgG1, kappa, V domains shown, Positive control, variable regions from WO2018212136A1; also called positive control anti-human CDH6 antibody) VH: QVQLLESGGGLVQPGGSLRLSCAASGFTFSSHGMHWVRQAPGKGLEWVSVISGSGSNTGYADSVKGRFTISRDNSKNTLYLQMNSLRAEDTAVYYCARQWGSYAFDSWGQGTLVTVSS VL: DIQMTQSPSSLSASVGDRVTITCRASQSISSYLNWYQQKPGKAPKLLIYAVSTLQSGVPSRFSGSGSGTDFTLTISSLQPEDFATYYCQQSGTFPPTTFGQGTKVEIKR
5290	8390	3830	DS-H01L02 (antibody, human IgG1, kappa, V domains shown, Positive control, variable regions from WO2018212136A1; also called positive control anti-human CDH6 antibody) VH: EVQLVQSGAEVKKPGASVKVSCKASGYTFTRNFMHWVRQAPGQGLEWMGWIYPGDGETEYAQKFQGRVTITADTSTSTAYMELSSLRSEDTAVYYCARGVYGGFAGGYFDFWGQGTLVTVSS VL: DIQMTQSPSSLSASVGDRVTITCKASQNIYKNLAWYQQKPGKAPKLLIYDANTLQTGVPSRFSGSGSGSDFTLTISSLQPEDFATYFCQQYYSGWAFGQGTKVEIKR
9860	11000	5740	CHI-CDH6-12 (antibody, human IgG1, kappa, V domains shown, also called CH1-CDH6-12; chimeric antibody of murine CDH6-12) VH: EVNLVESGGGLVQPGDSLTLSCSASGFTFTDYYMSWVRQFPGKALEWLALIRNKANSYTTEYSASVKGRFTISRDNSQSILYLQMNALRAEDSATYYCARDSYYSHDGFAYWGQGTLVTVSA VL: DIVLTQSPASLAVSLGQRATISCRASKSVSTSSYTYMHWYQQKPGQPPKLLIKFASYLESGVPARFSGSGSGTDFTLNIHPVEEEDAATYYCQHSREFPFTFGTGTKLEIKR
7210	814	9230	CHI-CDH6-14 (antibody, human IgG1, kappa, V domains shown, also called CHI-hCDH6-14; CH1-CDH6-14) VH: QIQLQQSGPELVKPGTSVKISCKASGYTFTDNYINWVRQRPGQGLEWIGWIYPGTGNSYYNEKFKGKATLTVDTSSSTAYMQFSSLTSEDSAVYLCASSYGDSFDYWGQGTTLTVSS VL: DIQMTQTTSSLSASLGNRVTISCRASQDIRNYLNWYQQKPDGTFKLLISYTSRLHSGVPSRFSGSGSGTDYSLTVSNLEPEDIATYYCQQYSQLPWTFGGGSRLEIKR

Reference: US20260234242A1 (HAINAN SIMCERE ZAIMING PHARMACEUTICAL, published 2026)
